According to patent publication US20250298034A1, “METHODS OF TREATING IMMUNOTHERAPY-ASSOCIATED ADVERSE EFFECTS” (NORTHWESTERN UNIVERSITY, priority 2022, published 2025):

System: human peripheral monocyte differentiated M1 macrophages
Assay: In vitro sMIC induction of PDL1 expression on monocyte-derived macrophages (flow cytometry)
Type: cell-based
Details: recombinant sMIC added at day 7, cultured 2 days; FIG. 4E
Procedure: In vitro macrophage generation from peripheral monocytes: Human peripheral blood monocyte differentiation into macrophages. PBMCs from healthy donors were seeded at the density of 2×10^6 cells/well in a 24 well plate with pre-warmed monocyte attachment media (MAM, Promocell, Cat. No. c-28051) and incubate at 37° C. After 1.5 hr incubation, non-adherent cells were removed. Adherent cells were washed three times with pre-warmed MAM before cultured in macrophage differentiation media respectively, the M1 macrophage generating media (Promocell c-28055) or the M2 macrophage generating media (Promocell c-28056). After 5 days of culture, 50% of the media were replaced with fresh media. At day 7, recombinant sMIC (rsMICB, his-tagged, SinoBiologicals Cat. No 10759-H08H) or control vehicle PBS were added to the culture at indicated concentration. The culture was continued for 2 days before being harvested for analyses.

B1: sMIC: recombinant sMIC (rsMICB, his-tagged, SinoBiologicals Cat. No 10759-H08H) (protein, UniProt Q29980 23-383, looked up)
MHC class I …: AEPHSLRYNLMVLSQDGSVQSGFLAEGHLDGQPFLRYDRQKRRAKPQGQWAENVLGAKTWDTETEDLTENGQDLRRTLTHIKDQKGGLHSLQEIRVCEIHEDSSTRGSRHFYYDGELFLSQNLETQESTVPQSSRAQTLAMNVTNFWKEDAMKTKTHYRAMQADCLQKLQRYLKSGVAIRRTVPPMVNVTCSEVSEGNITVTCRASSFYPRNITLTWRQDGVSLSHNTQQWGDVLPDGNGTYQTWVATRIRQGEEQRFTCYMEHSGNHGTHPVPSGKALVLQSQRTDFPYVSAAMPCFVIIIILCVPCCKKKTSAAEGPELVSLQVLDQHPVGTGDHRDAAQLGFQPLMSATGSTGSTEGT
modifications: His-tag
PDL1 expression on M1 macrophages: can induce PDL1 expression
